Peptide text beside a SMILES is read from it. * marks the point of attachment. FITC = O=C1OC2(c3ccc(O)cc3Oc3cc(O)ccc32)c2ccc(NC(=S)*)cc21
Experiments:
BGC-823 cells = format: cell-based, human; conditions: 200 µM
nude mice = test: In vivo toxicity in nude mice (body weight, H&E staining); conditions: 1 mg/kg i.v., one week
Method: All animal procedures were approved by the Ethics Committee of Xi’an Jiaotong University and conducted in accordance with the Helsinki Declaration (1975). Athymic nude mice (male, 4–5 weeks old, with a body weight of 20–25 g) were obtained from the Animal Experiment Center of Xi’an Jiaotong University, Xi’an, China. The SGC-7901 tumor xenografts were generated by subcutaneous injection of 5–8 × 10^6 SGC-7901 cells suspended in 200 μL culture medium into the left axilla of mice. The cells were allowed to grow for 2 weeks until tumor volume reached an estimate of 1 cm^3.
Cell Counting Kit-8 (CCK-8, Beyotime, Shanghai, China) assay and animal experiments were performed to evaluate the in vitro and in vivo toxicity of RP-1 peptide, respectively. For CCK-8 assay, 5 × 10^3 MKN-28, SGC-7901, BGC-823 and GES-1 cells in 100 μL culture medium were incubated into each well of a 96-well plate 24 h before peptide was added. All cells were incubated with FITC-RP-1 0.064 to 200 μM. After incubation for 24 h, 48 h or 72 h, 10 μL CCK-8 reagent were added into each well and further incubated for 3 h. Then, the absorbance at 450 nm was measured with a microplate reader (Bio-Rad, Hercules, CA, USA). In animal experiments, FITC-RP-1 or PBS 1 mg/kg was intravenously injected via the tail vein. The body weight of nude mice was measured every day. […]

SGC-7901 cells [1] = format: cell-based, human; conditions: 200 µM
MKN-28 cells = format: cell-based, human; conditions: 200 µM
SGC-7901 cells [2] = test: Binding affinity to gastric cancer cells (fluorescence saturation); design: species or system human; conditions: FITC-labeled peptide, 0 to 2.5 μM at 0.25 μM intervals, serum-free RPMI 1640, ambient temperature, 15 min, microplate reader; least squares fit, R^2 = 0.98; read-out: equilibrium dissociation constant (Kd)
Method: 5 × 10^5 SGC-7901 cells were inoculated into each well of a multi-well plate 24h before measurement. Both FITC- RP-1 and FITC-WYP peptide were serially diluted with RPMI 1640 culture medium containing no serum at concentrations ranged from 0 to 2.5 μM at 0.25 μM intervals, and incubated with SGC-7901 cells at ambient temperature for 15 min [40]. After washing twice with pre-cold PBS/0.2% Tween-20 solution, the unbound peptide was rinsed off, and cells were subsequently fixed in 4% paraformaldehyde at ambient temperature for 20 min. […] The equilibrium dissociation constant (Kd) was calculated using a least squares fit of the data with Origin 8.0 software (OriginLab, Massachusetts, USA). I was calculated using the Michaelis-Menten equation I = Imax([X])/(Kd+[X]), in which Imax was the maximum fluorescent intensity corresponding to peptide binding at saturation, which was calculated from the plots; I was the fluorescent intensity measured above; [X] was the concentration of total peptides and estimated to be the concentration of unbound peptide.

[3] = test system: human gastric epithelial cell line GES-1; format: cell-based; conditions: 200 µM
[4] = test system: CD44 on MKN-28-CD44-ox cells; test: Confocal immunofluorescence of peptide binding to CD44-overexpressing MKN-28 cells; format: cell-based, human; conditions: 100 μM Alexa Fluor 594 labeled peptide, 20 min, fixed cells, confocal microscopy
Method: Plasmids containing cDNA of CD44 protein were synthesized by GENECHEM, Shanghai, China. Using Pfu polymerase and two oligonucleotides ([…] and […]), the CD44 cDNA was cloned into Xhol and ECOR1 sites of GV146 (GENECHEM, Shanghai, China) by recombinant PCR. Then, CD44-negative MNK-28 cells were transfected with the plasmid with Lipofectamine 2000 reagent (Invitrogen, California, USA), and then the efficiency of CD44 expression in MKN-28 cells was tested. Finally, two cell lines were generated as following: MKN-28-con with no CD44 expression and MKN-28-CD44-ox with CD44 overexpression labeled with enhanced green fluorescent protein (EGFP).
For the preparation of confocal laser microscopy, the transfected MNK-28 cancer cells were washed with phosphate buffer saline (PBS) three times, then fixed with 4% paraformaldehyde at ambient temperature for 30 min, and blocked with 5% BSA (w/v) in PBS at 37°C for 1 h. The blocked cells were sequentially incubated with 100 μM RP-1 or WYP labeled with Alexa Fluor 594 for 20 min, and counterstained with 4,6-diamidino-2-phenylindole (DAPI). […] For the evaluation of the correlation of fluorescent intensities between CD44-EGFP and RP-1-Fluor 594, a semi-quantitative analysis was performed with ImageJ 1.48v software (National Institutes of Health, Maryland, USA) by randomly selecting and observing 10 fields of vision. […]

SGC-7901 tumor tissue = test: Fluorescence microscopy of frozen xenograft sections after injection; format: in vivo, athymic nude mice; conditions: 3 h after i.v. injection of peptide
Method: Once fluorescence signal reached its peak at the site of tumor, subcutaneous tumor tissues were harvested for further experiment. After shock-frozen with liquid nitrogen, tumor tissues were cut into 5 μm sections and fixed in 4% paraformaldehyde at ambient temperature for 30 min. The coverslips were mounted with glycerol–gelatin containing anti-fading buffer (Bioworld, Minnesota, USA). Finally, the fluorescence images of frozen sections were captured with a fluorescent microscope (Nikon-Eclipse, Tokyo, Japan)

Compound | cell viability (BGC-823 cells) | toxicity in vivo (nude mice) | cell viability (SGC-7901 cells [1]) | cell viability (MKN-28 cells) | Kd (SGC-7901 cells [2]) | cell viability [3] | binding of peptide to CD44 on the cell membrane [4] | fluorescence on tumor cells in frozen sections (SGC-7901 tumor tissue)
CC(C)C[C@H](NC(=O)[C@H](Cc1ccc(O)cc1)NC(=O)[C@H](CO)NC(=O)[C@H](Cc1c[nH]c2ccccc12)NC(=O)[C@@H]1CCCN1C(=O)[C@H](Cc1c[nH]cn1)NC(=O)[C@H](Cc1c[nH]c2ccccc12)NC(=S)Nc1ccc2c(c1)C(=O)OC21c2ccc(O)cc2Oc2cc(O)ccc21)C(=O)N[C@@H](Cc1c[nH]c2ccccc12)C(=O)N[C@H](C(=O)N[C@@H](CCC(N)=O)C(=O)N[C@@H](CCC(N)=O)C(=O)N[C@@H](C)C(=O)O)[C@@H](C)O [FITC-RP-1] ({FITC}-WHPWSYLWTQQA-OH; N-terminus and C-terminus assumed) | > 84% | low toxicity in vivo | > 86% | more than 85% | 135 nM | > 91% |  | 
WYPLAHWQTSWQ [scrambled control peptide … consisting of the same amino acids as RP-1, reference compound] |  |  |  |  |  |  | No fluorescent signal was detected | No fluorescence signal was detected

Reference: paper PMC5444726, “A CD44-specific peptide, RP-1, exhibits capacities of assisting diagnosis and predicting prognosis of gastric cancer” (Oncotarget, 2017)
